Data reported in patent publication WO2016092096A1 (dated 2016).
Residue numbers refer to the chain shown, from its start.

What was measured:
[1] = target: T1, VIM carbapenemase (Pseudomonas aeruginosa (strain ATCC …, UniProt A0A0F7KYQ8 21-266)); assay: sandwich on ArrayTube array as in Example 2; cell supernatant denatured 10 min at 99°C
T1 construct: The antigen in the assays came from VIM-positive strains or from supernatants of expressing cells

[2] = target: T2, OXA-48 carbapenemase (Klebsiella pneumoniae, UniProt Q6XEC0 23-265); assay: as above
T2 sequence (Q6XEC0 23-265 limits assumed): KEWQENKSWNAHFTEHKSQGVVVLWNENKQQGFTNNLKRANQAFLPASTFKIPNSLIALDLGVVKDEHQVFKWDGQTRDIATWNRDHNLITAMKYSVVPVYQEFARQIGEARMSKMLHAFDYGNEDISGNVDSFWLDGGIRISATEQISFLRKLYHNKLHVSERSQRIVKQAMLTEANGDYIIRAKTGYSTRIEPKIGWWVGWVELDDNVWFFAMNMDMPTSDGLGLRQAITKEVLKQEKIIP

[3] = target: T3, NDM carbapenemase (Klebsiella pneumoniae, UniProt C7C422 29-270); assay: as above
T3 construct: The antigen in the assays came from NDM-positive strains or from supernatants of expressing cells
T3 sequence (C7C422 29-270 limits assumed): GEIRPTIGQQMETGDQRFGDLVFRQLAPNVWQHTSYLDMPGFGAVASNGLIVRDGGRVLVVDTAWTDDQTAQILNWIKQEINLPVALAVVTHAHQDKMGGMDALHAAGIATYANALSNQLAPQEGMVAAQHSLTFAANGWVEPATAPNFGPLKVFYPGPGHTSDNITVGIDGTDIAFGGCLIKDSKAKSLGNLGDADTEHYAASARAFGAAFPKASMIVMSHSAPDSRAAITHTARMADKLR

[4] = target: T2, OXA-48 carbapenemase; assay: sandwich on ArrayTube array, 1461 capture and biotin-labelled 1281 detector, cultivated cells of clinical strains

B1: antibody 1721 (SEQ ID Nos: 19 and 23), detector antibody for VIM (antibody, V domains shown)
VH: QVQLQQPGSVLVRPGTSVKLSCKASGYTFTSYWMHWVKQRPGQGLEWIGEIYPNSGKTNYNEKFKGKATLTVDTSSSTAYVALNSLTSEDSAVYYCAKRYSLYDFTLDYWGQGTSVTVSS
VL: DIKMTQSPKSMSMSVGERVTLTCKASENVGTFVSWYQQKLDQSPKLLIYGASKRYTGVPDRFTGSGSATDFTLAISSVQAEDLADYHCGQSFSYPLTFGAGTKLELKR
notes: The detector is labelled with biotin
B1: binds [1].

B2: anti-OXA-48 antibody 1281 (antibody, V domains shown)
VH: DVQLQQSGPEMVKPGASVKISCKAFGYTFSDYYMYWVKQSHGKSLEWIGRVNGNNGDTRYNQKFEGKATLTVDKSSSTAYMELNSLTSEDSAVYYCARGDYLAYWGQGTTLTVSS
VL: NIVLTQSPASLAVSLGQRASISCRAIKSVDSYGTSFMHWYQQKPGQPPKLLIYRASNLESGIPARFSGSGSRTDFTLTINPVEADDVATYYCHQSNEAPYTFGGGTKLEIKR
notes: It was selected from a phage display Fab library
B2: binds [2].

B3: anti-NDM antibody 1041 (antibody, V domains shown)
VH: QVQLKQSGAELARPGASVKLSCKASGYTFRGYGISWVKQRTGQGLEWIGEIYPGSGNTHYNEKFKGKATLTADKSSSTAYMQLSSLTTEDSAVYFCADLGSWFANWGQGTLVTVSA
VL: DIVLTQSPATLSVTPGDSVSLSCRASQSIYNNLHWYQQKSHESPRLLIKYASQSISGIPSRFSGSGSGTDFTLSINSVETEDFGMYFCQQSNSWPYTFGAGTKLELKR
notes: It was selected from a phage display Fab library; Used as capture antibody
B3: binds [3].

B4: anti-NDM antibody 1121 (antibody, V domains shown)
VH: QVQLQQSEADLVRPGSSVKISCKASGYAFSNSWINWVKQRPGQGLEWIGQINPGDGNTKYNGKFKGKVILTADKSSSTAYMQLSSLTSEDSAVYFCERETPLWSFVYWGRGTLVTVSA
VL: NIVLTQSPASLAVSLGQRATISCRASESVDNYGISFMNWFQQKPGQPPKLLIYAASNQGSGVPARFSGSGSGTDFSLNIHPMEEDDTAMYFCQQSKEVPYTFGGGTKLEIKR
notes: Used as detector antibody, labelled with biotin
B4: binds [3].

B5: anti-OXA-48 antibody 1461 (antibody, V domains shown)
VH: QVQLKQSGAELGRPGSSVKLSCKTSGYKFKSYGINWVKQRPGQGLEWIGYIYPGSGYIEYNEKFQGEATLTSDTSSSTAYMQLRSLTSEDSAIYFCGRLGDGYFFYAMDYWGQGTSVTVSS
VL: QIVLTQSPTTMAASPGEKITITCSASSSISSNYMHWYQQKPGFSPKLLIYRTSNLGSGVPVRFSGSGSGTSYSLTIGTMEAEDVATYYCQQGSSIPFTFGSGTKLEIKR
notes: Used as capture antibody spotted on the array
B5: binds [4].

B6: anti-VIM antibody 1071 (antibody, V domains shown)
VH: QVKLQQSGPELARPGASVKLSCKASGYTFRSYGITWVKQRTGQGLEWIGEIYPESNISYYNEKFKGTATLTTDKSSSTAYMQLSSLTSEDSAVYFCARRDYDGSYIYWGQGTTLTVSS
VL: B5 VL with K18N, Y33F, M34L, W36G, G56A, V61T, S93D, I95L, F97R, S101G
notes: as for B3
B6: binds [1].
